The text below walks through data of patent publication US20190375831A1.

Assay [1] has as its target recombinant PfCSP (rPfCSP, residues 21-375) (Plasmodium falciparum) (UniProt P19597). Nature of the assay: ELISA on coated rPfCSP, OD405nm.
Assay [2] has the same target. Nature of the assay: biolayer interferometry, biotinylated CSP on the sensor, whole IgG in solution; apparent KD. A general note: BLI is a label-free optical method that tracks binding on a fibre tip over time.
For assay [3] the target is unchanged.

recombinant PfCSP (rPfCSP, residues 21-375) (Plasmodium falciparum), sequence (P19597 21-375): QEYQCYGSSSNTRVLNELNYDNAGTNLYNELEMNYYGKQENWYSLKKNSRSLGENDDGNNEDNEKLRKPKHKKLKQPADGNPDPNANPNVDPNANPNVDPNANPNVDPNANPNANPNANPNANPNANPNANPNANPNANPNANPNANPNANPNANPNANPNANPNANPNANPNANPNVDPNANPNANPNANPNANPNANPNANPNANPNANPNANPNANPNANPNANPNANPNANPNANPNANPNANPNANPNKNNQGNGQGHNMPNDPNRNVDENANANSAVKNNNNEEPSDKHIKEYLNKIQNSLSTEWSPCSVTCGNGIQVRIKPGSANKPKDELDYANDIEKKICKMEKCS

One may read the EC50 (read off the curve) as the concentration needed to bring the measured effect to its halfway point. For mAb CIS43 (antibody), in assay [1], the concentration giving a half-maximal response (EC50 (read off the curve)) was determined as 0.003 µg/mL. Besides, the Kd in assay [2] is 0.91 nM. In addition, in assay [3], the -TΔS1 is 8.4 kcal/mol, the -TΔS2 was found to be 0.1 kcal/mol, the N1 (stoichiometry) was found to be 1.2 and the N2 (stoichiometry) amounted to 5.1. Besides, in assay [3], the ΔH1 was -19.5 kcal/mol and the ΔH2 is -10.2 kcal/mol.

In the case of mAb2A10 (antibody), the EC50 (read off the curve) in assay [1] was 0.04 µg/mL. Besides, in assay [2], the Kd was 0.15 nM.
